Data set [1] concerns T1, N[C@@H](CCC(=O)Nc1ccc([N+](=O)[O-])cc1)C(=O)O.
T1 construct: lacking the transmembrane domain; made in house; host or cells: Pichia pastoris
In words: Initial rate studies with D-GpNA and L-GpNA, with or without acceptor GlyGly. In kind it is biochemical, human. To be noted: pH 7.4, 37.0 °C. The method, then:
(§1) Transpeptidation Reaction: The same assay buffer was used for both the hydrolysis reaction and the transpeptidation reaction. The transpeptidation reaction included 40 mM glycylglycine (glygly, Sigma, St. Louis, Mo.) as the acceptor. The concentration of the substrate for the transpeptidation reaction, L-GpNA (Sigma) was varied from 0.25 mM to 3 mM. The concentration of L-GpNA was 3 mM for experiments in which the concentration of glygly was varied. To initiate the transpeptidation reaction, 4 mU GGT were added.
(§2) 1. […] 2, which describes a ping pong kinetic mechanism. […] 3 and 4. […] 5 (25).
(§3) In eq. […] Data for noncompetitive inhibition were fitted to eq. 6. […] 6 [25].
(§4) Initial Rate Studies with D-GpNA and L-GpNA: In this study, the inhibition of both the GGT hydrolysis and transpeptidation reactions by OU749 and a new series of thiadiazol sulfonamide analogs was studied. The hydrolysis and transpeptidation reactions were analyzed separately by using different stereo-isomers of the γ-glutamyl-p-nitroanilide (GpNA) substrate. The kinetics of both reactions were first characterized in the absence of inhibitors. Cleavage of the γ-glutamyl bond of either D-GpNA or L-GpNA releases p-nitroanaline, which has an OD405 of 7,680 M^−1 cm^−1, allowing for the reactions to be monitored continuously with high sensitivity. The D-glutamyl isomer of GpNA was used as the substrate for the hydrolysis reaction, in which water serves as the acceptor. The L-glutamyl isomer of GpNA, with glycylglycine (GlyGly) as an acceptor, was used for the transpeptidation reaction. L-GpNA can serve as both a substrate and a low affinity acceptor, while D-GpNA is unable to serve as an acceptor (18, 21, 26). Therefore, in the absence of an added acceptor GGT exclusively catalyzes a hydrolysis reaction with D-GpNA as the substrate. When L-GpNA is used as a substrate, the GGT reaction is a mixture of both the hydrolysis and transpeptidation reactions. Under these conditions, the rate of the reaction is the sum of hydrolysis and transpeptidation reactions, with the hydrolysis reaction contributing more at low L-GpNA concentrations and transpeptidation dominating at saturating substrate concentrations. […] However, the maximum rate (Vmax) obtained with L-GpNA was approximately 3-times faster than that measured with D-GpNA, and the KGpNA for L-GpNA was 5-times higher than that measured for D-GpNA. This is at least partially due to the ability of L-GpNA to serve as an acceptor, resulting in a transpeptidation reaction, which is faster than the hydrolysis reaction. Therefore, to study the hydrolysis reaction in isolation, D-GpNA was used as the substrate without any added acceptor.

Data set [2] concerns T2, N[C@H](CCC(=O)Nc1ccc([N+](=O)[O-])cc1)C(=O)O.
T2 construct: lacking the transmembrane domain; made in house; host or cells: Pichia pastoris
Described as above. To be noted: pH 7.4, 37.0 °C. In kind it is biochemical, human. The method, then: as §1, §2, §3, §4

Chain of Human GGT1 (Homo sapiens) (chain, as listed by the source): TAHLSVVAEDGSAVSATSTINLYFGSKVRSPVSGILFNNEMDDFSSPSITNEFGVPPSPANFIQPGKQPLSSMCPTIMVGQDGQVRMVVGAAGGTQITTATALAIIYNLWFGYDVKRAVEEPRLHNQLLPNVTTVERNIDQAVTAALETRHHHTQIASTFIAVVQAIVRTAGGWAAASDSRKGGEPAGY
Chain of Human GGT1 (Homo sapiens) (chain, as listed by the source): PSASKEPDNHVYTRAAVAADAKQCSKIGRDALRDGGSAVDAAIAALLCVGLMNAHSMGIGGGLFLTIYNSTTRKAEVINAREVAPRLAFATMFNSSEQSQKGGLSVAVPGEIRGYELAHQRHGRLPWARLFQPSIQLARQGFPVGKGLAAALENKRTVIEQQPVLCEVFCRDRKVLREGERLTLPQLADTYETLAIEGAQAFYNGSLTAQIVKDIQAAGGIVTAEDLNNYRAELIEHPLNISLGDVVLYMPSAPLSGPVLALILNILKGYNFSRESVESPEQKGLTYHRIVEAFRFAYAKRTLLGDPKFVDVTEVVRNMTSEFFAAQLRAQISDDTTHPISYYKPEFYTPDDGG

Turning to Human GGT1 (Homo sapiens), the Km stood at 830 ± 60 µM in data set [1] (other: minus acceptor), 1200 ± 100 µM in data set [1] (other: plus acceptor GlyGly), 160 ± 20 µM in data set [2] (other: minus acceptor) and 4200 ± 100 µM in data set [2] (other: plus acceptor GlyGly).

The term Km denotes the concentration of substrate that gives half-maximal velocity.

Values taken from patent US9540337B2, “Gamma-glutamyl transpeptidase inhibitors and methods of use” (The Board of Regents of the University of Oklahoma, priority 2012, dated 2017).
